Assay results: PMC5159557 (Nucleic Acids Research, 2016)

T1: Cas5 subunit of Escherichia coli type I-E Cascade (Escherichia coli, UniProt Q46898 1-224)
T1 sequence: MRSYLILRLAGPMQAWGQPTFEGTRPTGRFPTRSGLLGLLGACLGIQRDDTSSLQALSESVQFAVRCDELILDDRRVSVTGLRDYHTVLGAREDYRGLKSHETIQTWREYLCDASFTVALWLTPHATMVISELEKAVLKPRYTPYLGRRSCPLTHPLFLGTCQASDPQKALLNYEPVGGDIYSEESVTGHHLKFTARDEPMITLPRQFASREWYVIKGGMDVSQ

T2: Cas6e subunit of Escherichia coli type I-E Cascade (Escherichia coli, UniProt Q46897 1-199)
T2 sequence: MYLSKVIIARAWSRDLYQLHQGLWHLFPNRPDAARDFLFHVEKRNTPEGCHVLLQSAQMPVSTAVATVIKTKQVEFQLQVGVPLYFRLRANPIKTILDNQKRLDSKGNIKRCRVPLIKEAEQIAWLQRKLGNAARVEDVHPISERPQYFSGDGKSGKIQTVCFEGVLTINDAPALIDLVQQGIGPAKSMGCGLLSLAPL


Tests used:
Experiment in all cases: native MS
[1] = target: Cas7 subunit of Escherichia coli type I-E Cascade (Escherichia coli)
[2] = target: T1, Cas5 subunit of Escherichia coli type …
[3] = target: T2, Cas6e subunit of Escherichia coli type …

Cas7 subunit of Escherichia coli type I-E Cascade (natural protein), sequence (Q46899 2-363 limits assumed): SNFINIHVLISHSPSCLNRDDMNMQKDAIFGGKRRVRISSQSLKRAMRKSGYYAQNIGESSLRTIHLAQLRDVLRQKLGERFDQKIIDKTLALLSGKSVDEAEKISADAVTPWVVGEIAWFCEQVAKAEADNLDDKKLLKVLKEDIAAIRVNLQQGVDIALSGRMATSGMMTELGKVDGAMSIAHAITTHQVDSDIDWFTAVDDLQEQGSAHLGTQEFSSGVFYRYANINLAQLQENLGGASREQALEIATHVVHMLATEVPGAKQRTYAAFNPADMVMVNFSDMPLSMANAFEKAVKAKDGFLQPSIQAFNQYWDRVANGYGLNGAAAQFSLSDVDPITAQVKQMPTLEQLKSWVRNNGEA

Row | stoichiometry N [1] | binding result [2] | binding result [3] | Molecule
1 | 6 | – | – | Cas7 subunit of Escherichia coli type I-E Cascade (natural protein)
2 | – | binds | binds | Cse2 subunit of Escherichia coli type I-E Cascade, N-terminally fused to Strep-Tag II (natural protein) MADEIDAMALYRAWQQLDNGSCAQIRRVSEPDELRDIPAFYRLVQPFGWENPRHQQALLRMVFCLSAGKNVIRHQDKKSEQTTGISLGRALANSGRINERRIFQLIRADRTADMVQLRRLLTHAEPVLDWPLMARMLTWWGKRERQQLLEDFVLTTNKNA
